Assays:
[1] = molecular target: the molecule itself; test: cell-based or functional assay
[2] = molecular target: the molecule itself; test: cryo-EM structure; AtKEOPS mixed with tRNA^ArgCCU at 1:2; tRNA not seen; six subunits resolved (KAE1, PCC1, PCC1, KAE1, BUD32, CGI121); 3.2 Å after local refinement
[3] = molecular target: the molecule itself; test: SEC; oligomeric state from elution volumes (Superdex 200 Increase 10/300 GL, HiLoad 16/600 Superdex 200) with reference to ScKEOPS (monomeric, 117.7 kDa) and standard calibration

Protein	stoichiometry N [3]	also measured
A. thaliana KEOPS variant PCC1^R73D–KAE1–BUD32–CGI121 (complex, Arabidopsis thaliana) chain 1: MKKKMIAIGFEGSANKIGVGIVTLDGTILANPRHTYITPPGHGFLPRETAHHHLDHVLPLVKSALETSQVTPEEIDCICYTKGPGMGAPLQVSAIVVRVLSQLWKKPIVAVNHCVAHIEMGRVVTGADDPVVLYVSGGNTQVIAYSEGRYRIFGETIDIAVGNCLDRFARVLKLSNDPSPGYNIEQLAKKGENFIDLPYAVKGMDVSFSGILSYIETTAEEKLKNNECTPADLCYSLQETVFAMLVEITERAMAHCDKKDVLIVGGVGCNERLQEMMRTMCSERDGKLFATDDRYCIDNGAMIAYTGLLAFVNGIETPIEDSTFTQRFRTDEVHAVWREKEAVLLGDKKVAAN chain 2: MDCEENVRDESLVLIKQGAEARVFESTFAGRRSIVKERFSKKYRHPILDAKLTLKRLNAEARCMTKARKLGVCTPVLYAVDTLLHSLTLEYIEGVSVKDIFLEFGTNGVVEERLDDVAAQIGAAIAKLHDGGLAHGDLTTSNMLVRSGTNQLVLIDFGLSVTSTLPEDKAVDLYVLERALLSMHSSCGNVMDRILTAYRKSSKQWSATFNKLAQVRQRGRKRTMIG chain 3: MKVFNLDRGNTLSVSLFSGVTNSKELLNSMLDGSLKLEVSFLNASLIPDIFPLLAAAQKALISKSRDSLSTRTLHSELVYNYSGSKHITESLKRCGISENTTYILAARFNASPVEMEEVAKLINGKEIDLEELKTHANQANILKHYKITSQELGISSLGDAIVCRIAARDAL chain 4: MAATVPATTRSDQTWDFSCNLDVSFESEEHALIAYTSLAVDKELQPDKVRRVMSVSNNKLSVHFEAIEARLLDASFSAFVDVLTLATRTIQEFGQK	–	t^6A-catalytic activity relative to AtKEOPS dimer [1]: ~25%
Arabidopsis thaliana PCC1 (natural protein, AtPCC1, A. thaliana, from chemically synthesized DNA; Forms a homodimer in the cryo-EM structure; also called AtPCC1; AT5G53045; source: E. coli (Rosetta DE3 pLysS or BL21), co-expressed with KAE1, purified (Ni-NTA, SEC)) MAATVPATTRSDQTWDFSCNLDVSFESEEHALIAYTSLAVDKELQPDKVRRVMSVSNNKLSVHFEAIEARLLRASFSAFVDVLTLATRTIQEFGQK	–	binding result [2]: binds
A. thaliana KEOPS complex (PCC1–KAE1–BUD32–CGI121) (complex, Arabidopsis thaliana, AtKAE1, A. thaliana, as m1; AtBUD32, A. thaliana, as m2; AtCGI121, A. thaliana, as m3; AtPCC1, A. thaliana, as m4; Written as the four-subunit protomer; In solution the wild type is an eight-subunit dimer (K2B2C2P2) of this protomer, and it stood in that form in the pull-down from seedling lysate; also called AtKEOPS; KBCP; source: reconstituted from purified KAE1–PCC1 and BUD32–CGI121 (E. coli) …) chain 1: MKKKMIAIGFEGSANKIGVGIVTLDGTILANPRHTYITPPGHGFLPRETAHHHLDHVLPLVKSALETSQVTPEEIDCICYTKGPGMGAPLQVSAIVVRVLSQLWKKPIVAVNHCVAHIEMGRVVTGADDPVVLYVSGGNTQVIAYSEGRYRIFGETIDIAVGNCLDRFARVLKLSNDPSPGYNIEQLAKKGENFIDLPYAVKGMDVSFSGILSYIETTAEEKLKNNECTPADLCYSLQETVFAMLVEITERAMAHCDKKDVLIVGGVGCNERLQEMMRTMCSERDGKLFATDDRYCIDNGAMIAYTGLLAFVNGIETPIEDSTFTQRFRTDEVHAVWREKEAVLLGDKKVAAN chain 2: MDCEENVRDESLVLIKQGAEARVFESTFAGRRSIVKERFSKKYRHPILDAKLTLKRLNAEARCMTKARKLGVCTPVLYAVDTLLHSLTLEYIEGVSVKDIFLEFGTNGVVEERLDDVAAQIGAAIAKLHDGGLAHGDLTTSNMLVRSGTNQLVLIDFGLSVTSTLPEDKAVDLYVLERALLSMHSSCGNVMDRILTAYRKSSKQWSATFNKLAQVRQRGRKRTMIG chain 3: MKVFNLDRGNTLSVSLFSGVTNSKELLNSMLDGSLKLEVSFLNASLIPDIFPLLAAAQKALISKSRDSLSTRTLHSELVYNYSGSKHITESLKRCGISENTTYILAARFNASPVEMEEVAKLINGKEIDLEELKTHANQANILKHYKITSQELGISSLGDAIVCRIAARDAL chain 4: MAATVPATTRSDQTWDFSCNLDVSFESEEHALIAYTSLAVDKELQPDKVRRVMSVSNNKLSVHFEAIEARLLRASFSAFVDVLTLATRTIQEFGQK	2	–
A. thaliana KAE1–PCC1 subcomplex (complex, Arabidopsis thaliana, AtKAE1, A. thaliana, as m1; AtPCC1, A. thaliana, as m4; Written as the KAE1–PCC1 heterodimer unit, which by SEC forms a dimer of itself; also called KP; AtKP; source: E. coli (Rosetta DE3 pLysS or BL21), co-expressed from pET26a–AtKAE1–PCC1-6His, purified (Ni-NTA, SEC)) chain 1: MKKKMIAIGFEGSANKIGVGIVTLDGTILANPRHTYITPPGHGFLPRETAHHHLDHVLPLVKSALETSQVTPEEIDCICYTKGPGMGAPLQVSAIVVRVLSQLWKKPIVAVNHCVAHIEMGRVVTGADDPVVLYVSGGNTQVIAYSEGRYRIFGETIDIAVGNCLDRFARVLKLSNDPSPGYNIEQLAKKGENFIDLPYAVKGMDVSFSGILSYIETTAEEKLKNNECTPADLCYSLQETVFAMLVEITERAMAHCDKKDVLIVGGVGCNERLQEMMRTMCSERDGKLFATDDRYCIDNGAMIAYTGLLAFVNGIETPIEDSTFTQRFRTDEVHAVWREKEAVLLGDKKVAAN chain 2: MAATVPATTRSDQTWDFSCNLDVSFESEEHALIAYTSLAVDKELQPDKVRRVMSVSNNKLSVHFEAIEARLLRASFSAFVDVLTLATRTIQEFGQK	2	–
A. thaliana KAE1–BUD32–PCC1 subcomplex (complex, Arabidopsis thaliana, AtKAE1, A. thaliana; AtBUD32, A. thaliana; AtPCC1, A. thaliana; Written as the three-subunit unit, which by SEC forms a dimer of itself; also called KBP; AtKBP; source: recombinant, heterologous expression; copies: + +) chain 1: MKKKMIAIGFEGSANKIGVGIVTLDGTILANPRHTYITPPGHGFLPRETAHHHLDHVLPLVKSALETSQVTPEEIDCICYTKGPGMGAPLQVSAIVVRVLSQLWKKPIVAVNHCVAHIEMGRVVTGADDPVVLYVSGGNTQVIAYSEGRYRIFGETIDIAVGNCLDRFARVLKLSNDPSPGYNIEQLAKKGENFIDLPYAVKGMDVSFSGILSYIETTAEEKLKNNECTPADLCYSLQETVFAMLVEITERAMAHCDKKDVLIVGGVGCNERLQEMMRTMCSERDGKLFATDDRYCIDNGAMIAYTGLLAFVNGIETPIEDSTFTQRFRTDEVHAVWREKEAVLLGDKKVAAN chain 2: MDCEENVRDESLVLIKQGAEARVFESTFAGRRSIVKERFSKKYRHPILDAKLTLKRLNAEARCMTKARKLGVCTPVLYAVDTLLHSLTLEYIEGVSVKDIFLEFGTNGVVEERLDDVAAQIGAAIAKLHDGGLAHGDLTTSNMLVRSGTNQLVLIDFGLSVTSTLPEDKAVDLYVLERALLSMHSSCGNVMDRILTAYRKSSKQWSATFNKLAQVRQRGRKRTMIG chain 3: MAATVPATTRSDQTWDFSCNLDVSFESEEHALIAYTSLAVDKELQPDKVRRVMSVSNNKLSVHFEAIEARLLRASFSAFVDVLTLATRTIQEFGQK	2	–

Source: article PMC11077089, “Molecular basis of A. thaliana KEOPS complex in biosynthesizing tRNA t^6A” (Nucleic Acids Research, 2024)
